Results as given in article PMC7152798.

What was measured:
[1] = molecular target: GST-FMRP C-terminus deleted from the last 63 amino acids (mouse); assay: pull-down; GST-fusion proteins made in yeast, immobilised on glutathione sepharose 4B beads and incubated at 4 °C with lysate of tsA-201 cells transfected with CaV2.2/α2δ-1/β1b; washed four times with ice-cold 1% Triton-PBS; blots with CaV2.2 II-III loop Ab and GST Ab; bands quantified as a percentage of CT
[2] = molecular target: GST-FMRP C-terminus deleted from the last 89 amino acids which includes the RGG motif (mouse); assay: as above

Sequence of calcium channel CaV2.2 (Q05152 whole entry): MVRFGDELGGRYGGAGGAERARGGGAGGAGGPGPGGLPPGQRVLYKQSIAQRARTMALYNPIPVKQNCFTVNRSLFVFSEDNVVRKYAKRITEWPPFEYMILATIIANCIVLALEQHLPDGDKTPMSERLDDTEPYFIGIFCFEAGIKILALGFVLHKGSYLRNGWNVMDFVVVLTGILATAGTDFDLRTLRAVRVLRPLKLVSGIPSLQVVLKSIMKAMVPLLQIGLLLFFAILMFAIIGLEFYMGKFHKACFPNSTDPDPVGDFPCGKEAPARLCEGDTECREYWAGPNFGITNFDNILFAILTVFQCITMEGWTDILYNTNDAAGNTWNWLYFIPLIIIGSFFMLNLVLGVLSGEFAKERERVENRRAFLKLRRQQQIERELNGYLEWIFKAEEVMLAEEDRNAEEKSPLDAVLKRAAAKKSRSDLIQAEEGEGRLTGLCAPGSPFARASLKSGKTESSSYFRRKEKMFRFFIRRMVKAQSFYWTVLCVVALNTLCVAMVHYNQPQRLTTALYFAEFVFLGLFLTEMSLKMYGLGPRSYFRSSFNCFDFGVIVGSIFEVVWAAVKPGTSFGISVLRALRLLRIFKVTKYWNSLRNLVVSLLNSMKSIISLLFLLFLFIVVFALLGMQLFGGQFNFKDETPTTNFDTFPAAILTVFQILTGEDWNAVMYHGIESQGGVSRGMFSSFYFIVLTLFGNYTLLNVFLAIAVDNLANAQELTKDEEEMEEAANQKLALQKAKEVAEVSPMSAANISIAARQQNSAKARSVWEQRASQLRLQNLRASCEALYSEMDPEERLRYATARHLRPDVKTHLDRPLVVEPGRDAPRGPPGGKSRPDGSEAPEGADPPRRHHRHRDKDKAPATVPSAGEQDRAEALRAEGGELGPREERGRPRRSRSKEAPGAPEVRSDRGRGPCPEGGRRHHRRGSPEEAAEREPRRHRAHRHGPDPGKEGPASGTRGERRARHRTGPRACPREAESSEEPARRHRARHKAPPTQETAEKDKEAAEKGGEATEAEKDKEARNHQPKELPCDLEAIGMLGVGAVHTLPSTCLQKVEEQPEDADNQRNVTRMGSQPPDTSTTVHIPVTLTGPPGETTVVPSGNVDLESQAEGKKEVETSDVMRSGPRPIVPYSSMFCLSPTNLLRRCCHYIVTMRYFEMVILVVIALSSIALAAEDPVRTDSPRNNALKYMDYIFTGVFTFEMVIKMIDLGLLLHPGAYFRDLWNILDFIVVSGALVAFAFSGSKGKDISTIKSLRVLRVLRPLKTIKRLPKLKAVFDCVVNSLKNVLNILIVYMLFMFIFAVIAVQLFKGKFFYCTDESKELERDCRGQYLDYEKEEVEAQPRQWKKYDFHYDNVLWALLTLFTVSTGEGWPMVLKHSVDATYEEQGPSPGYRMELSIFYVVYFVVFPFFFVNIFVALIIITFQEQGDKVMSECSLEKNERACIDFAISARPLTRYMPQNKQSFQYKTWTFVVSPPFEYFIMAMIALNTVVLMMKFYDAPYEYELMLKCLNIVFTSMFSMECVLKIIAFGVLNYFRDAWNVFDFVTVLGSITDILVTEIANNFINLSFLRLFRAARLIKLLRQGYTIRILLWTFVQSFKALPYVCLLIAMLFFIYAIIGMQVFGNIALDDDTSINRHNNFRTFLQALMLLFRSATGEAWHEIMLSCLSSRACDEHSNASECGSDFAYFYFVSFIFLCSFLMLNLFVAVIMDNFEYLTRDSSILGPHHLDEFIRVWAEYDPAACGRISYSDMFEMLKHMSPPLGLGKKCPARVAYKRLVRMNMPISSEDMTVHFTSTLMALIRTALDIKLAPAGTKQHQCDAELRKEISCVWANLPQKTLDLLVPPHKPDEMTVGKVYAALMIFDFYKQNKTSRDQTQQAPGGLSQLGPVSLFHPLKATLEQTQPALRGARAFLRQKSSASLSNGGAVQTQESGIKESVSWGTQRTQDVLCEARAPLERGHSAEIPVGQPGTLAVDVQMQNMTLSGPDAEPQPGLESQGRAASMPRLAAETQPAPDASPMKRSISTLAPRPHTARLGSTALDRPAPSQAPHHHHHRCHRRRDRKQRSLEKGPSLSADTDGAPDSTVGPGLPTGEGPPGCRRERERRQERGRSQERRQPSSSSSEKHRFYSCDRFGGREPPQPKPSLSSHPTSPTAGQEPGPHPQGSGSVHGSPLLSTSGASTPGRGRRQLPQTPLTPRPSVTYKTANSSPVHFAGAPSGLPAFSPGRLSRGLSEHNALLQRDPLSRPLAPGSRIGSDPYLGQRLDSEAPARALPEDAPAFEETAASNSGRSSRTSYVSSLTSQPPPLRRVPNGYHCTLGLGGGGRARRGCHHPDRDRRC

Work on “calcium channel CaV2.2 (from UniProt Q05152 1-2339) (natural protein)” yielded a reduction of the binding relative to CT [1] of 61.7% and a reduction of the binding relative to CT [2] of 79.5%.
